Results from patent publication US20250368742A1.
Where two headings read alike, the source gives them in different places.

Assays:
[1] = target: shed MICA004 polypeptide (human) (UniProt Q29983); assay: capture ELISA (anti-hFc / antibody / shed antigen / biotin-6D4)
[2] = target: shed MICA008 polypeptide (human) (UniProt Q29983); assay: as above
[3] = target: shed MICA002 polypeptide (human) (UniProt Q29983); assay: as above
[4] = target: shed MICA002 polypeptide (human) (UniProt Q29983); assay: ELISA: antibody titrated on anti-hFc plate, shed MICA002 captured, detection NKG2D-His + anti-His-HRP
[5] = target: shed MICA004 polypeptide (human) (UniProt Q29983); assay: capture ELISA (anti-hFc / antibody / shed antigen / biotin-6D4); remark: listed apart in the source
[6] = target: shed MICA008 polypeptide (human) (UniProt Q29983); assay: as above; remark: listed apart in the source
[7] = target: shed MICA002 polypeptide (human) (UniProt Q29983); assay: as above; remark: listed apart in the source
[8] = target: shed MICA004 polypeptide (human) (UniProt Q29983); assay: ELISA: antibody titrated on anti-hFc plate, shed MICA004 captured, detection NKG2D-His + anti-His-HRP
[9] = target: shed MICA004 polypeptide (human) (UniProt Q29983); assay: capture ELISA (anti-hFc / antibody / shed antigen / biotin-6D4); remark: listed apart in the source
[10] = target: shed MICA008 polypeptide (human) (UniProt Q29983); assay: as above; remark: listed apart in the source
[11] = target: shed MICA002 polypeptide (human) (UniProt Q29983); assay: as above; remark: listed apart in the source
[12] = target: shed MICB005 polypeptide (human) (UniProt Q29980); assay: as above
[13] = target: shed MICB005 polypeptide (human) (UniProt Q29980); assay: as above; remark: listed apart in the source

| EC50 [1] [µg/mL] | Max OD450 [1] | EC50 [2] [µg/mL] | Max OD450 [2] | EC50 [3] [µg/mL] | Max OD450 [3] | EC50 [4] [µg/mL] | EC50 [5] [µg/mL] | Max OD450 [5] | EC50 [6] [µg/mL] | Max OD450 [6] | EC50 [7] [µg/mL] | Max OD450 [7] | EC50 [8] [µg/mL] | EC50 [12] [µg/mL] | Max OD450 [12] | Binder | further results |
| --- | --- | --- | --- | --- | --- | --- | --- | --- | --- | --- | --- | --- | --- | --- | --- | --- | --- |
| 0.14 | 2.49 | 0.22 | 0.34 | 0.09 | 3.3 | 0.167 | 0.129 | 1.83 | 0.105 | 1.15 | 0.107 | 1.82 | 0.071 |  |  | 3F9 (antibody, human IgG1, kappa, V domains shown) VH: QVQLVESGGGLVKPGGSLRLSCAASGFTFSNYAMSWIRQAPGKGLEWVSYISPGGDYIYYADSVKGRFTISRDNAKNSLYLQMNSLRAEDTAVYYCTTDRRHYGSYAMDYWGQGTLVTVSS VL: DIVMTQSPLSLPVTPGEPASISCRSSKSLLHSNLNTYLYWFLQKPGQSPQILIYRMSNLASGVPDRFSGSGSGTAFTLKISRVEAEDVGVYYCMQHLEYPFTFGPGTKLEIKR | EC50 [9]: 0.255 µg/mL; maxOD [9]: 2.7; EC50 [10]: 0.134 µg/mL; maxOD [10]: 1.51; EC50 [11]: 0.131 µg/mL; maxOD [11]: 3.96 |
| 0.33 | 0.89 | 0.22 | 0.15 | 0.14 | 3.1 | 0.06 | 0.47 | 0.35 | 0.191 | 0.48 | 0.176 | 1.42 | 0.083 | 0.04 | 2.91 | 13A9 (antibody, human IgG1, kappa, V domains shown) VH: QVQLQQSGAELVRPGTSVKVSCKASGYAFTNYLIEWVKQRPGQGLEWIGAINPGSGATNYNEKFKDKARLTADKSSNTAYLQFSSLTSDDSAVYFCARFLGNYFDNWGQGATLTVSS VL: DIQMTQSPASLSASVGETVTITCRASGNIHSYLAWYQQKQGKSPQLLVYYAETLADGVPSRFSGRGSGTQYSLKINSLQPEDFGSYFCQQFWTTPYTFGGGTKVEIKR | EC50 [13]: 0.088 µg/mL; Max OD450 [13]: 1.28 |
| 0.38 | 1.22 | 0.44 | 0.13 | 0.31 | 2.89 |  |  |  |  |  |  |  |  | 0.73 | 0.17 | #40 (antibody, V domains shown) VH: QVQLQQSGPELVKPGASVKVSCKASGYAFTKYNIYWVKQSHGKSLEWIGYIDPYNGGTVYNQKFKGKATLTVDKSSSTAYMHLNSLTSEDSAVYYCATTDGYSLFTYWGQGTLVTVSA VL: DIQMTQTTSSLSASLGDRVTITCSAGQGINNYLNWYQQKPDGTVKLLIFYTSSLQSGVPSRFSGSGSGADYSLTISNLEPEDIATYYCQQYSKLPLTFGAGTKLELK |  |
